Test results taken from PMC9599836, “Comparative Analysis of Mesophilic YqfB-Type Amidohydrolases” (Biomolecules, 2022).

Tests used:
Assay in all cases: purified protein
Settings in all cases: 20 mM Tris-HCl, pH 7.5, 22 °C, 0.025-0.2 mM ac4C
purified protein [1] = substrate: CC(=O)Nc1ccn([C@@H]2O[C@H](CO)[C@@H](O)[C@H]2O)c(=O)n1; type: biochemical, Shewanella loihica
purified protein [2] = substrate: CC(=O)Nc1ccn([C@@H]2O[C@H](CO)[C@@H](O)[C@H]2O)c(=O)n1; type: biochemical, Buttiauxella agrestis
purified protein [3] = substrate: CC(=O)Nc1ccn([C@@H]2O[C@H](CO)[C@@H](O)[C@H]2O)c(=O)n1

B1: SloYqfB (Shewanella loihica PV-4) (protein)
chain: MTPLTYDGKITFFERFEADILSGAKTITLRDESESHFRVGDRLSVSTFETGRHFCDIQVVRVEELAFEALNSRHAVQENMTLEQLKAVITEIYGEIDTLYLIEYRLL
notes: pLATE31 expression vector, E. coli HMS174 ΔpyrF ΔyqfB host
Purified protein [1]
  Km: (1 ± 0.2) × 10^-4 M
  kcat: 441 ± 37 s⁻¹
  kcat/Km: 4.3e+06 ± 500000 M⁻¹ s⁻¹

B2: BagYqfB (Buttiauxella agrestis ATCC 33320) (protein)
chain: MNDITFFQRFESDIVAGRKTITLRDVSESHFIPGQQLRVGRYEDDVYFCTIEVVSVTPVALEKLTDEHARQENMTLPELKEVIGEIYPGLTELYAIVFRLLTKSDKRVL
notes: 109 a.a; pLATE31 expression vector, E. coli HMS174 ΔpyrF ΔyqfB host
Purified protein [2]
  Km: (3.6 ± 0.8) × 10^-5 M
  kcat: 154 ± 11 s⁻¹
  kcat/Km: 4.3e+06 ± 700000 M⁻¹ s⁻¹

B3: KpnYqfB (Klebsiella pneumoniae subsp. pneumoniae MGH 78578) (protein)
chain: MQANDITFFQRFQDDILAGRKTITIRDAAESHFKPGDVLRVGRYEDDGYFCTIAVTATSTVTLDTLTEQHAQQENMTLGQLRQVISDIYPGESQFYVIEFKTL
Purified protein [3]
  Km: (4.6 ± 0.8) × 10^-5 M
  kcat: 216 ± 2 s⁻¹
  kcat/Km: 4.8e+06 ± 800000 M⁻¹ s⁻¹
